Data from article PMC3494861 (The Journal of Cell Biology, 2012).
One block for each molecule: values may come before it.

Experiments:
[1] = target: His9-Tob55, short isoform (N. crassa strain Tob55 short HT) (N. crassa); test: cryo-EM structure
[2] = target: His9-Tob37 (Tob37 with a 9x His tag, N. crassa strain Tob37HT) (N. crassa) (UniProt Q7SFC4); test: isotope dilution mass spectrometry
[3] = target: His9-Tob38 (Tob38 with a 9x His tag, N. crassa strain Tob38HT) (N. crassa) (UniProt V5IPB4); test: isotope dilution mass spectrometry
[4] = target: Tob55 (endogenous; long, intermediate and short isoforms) (N. crassa); test: cross-linking
[5] = target: His9-Tob55, short isoform (N. crassa strain Tob55 short HT) (N. crassa); test: isotope dilution mass spectrometry
[6] = target: T1, His9-Tob38 (Tob38 with a 9x His tag, N. crassa strain Tob38HT) (N. crassa, UniProt V5IPB4 1-340); test: isotope dilution mass spectrometry
T1 sequence (looked up): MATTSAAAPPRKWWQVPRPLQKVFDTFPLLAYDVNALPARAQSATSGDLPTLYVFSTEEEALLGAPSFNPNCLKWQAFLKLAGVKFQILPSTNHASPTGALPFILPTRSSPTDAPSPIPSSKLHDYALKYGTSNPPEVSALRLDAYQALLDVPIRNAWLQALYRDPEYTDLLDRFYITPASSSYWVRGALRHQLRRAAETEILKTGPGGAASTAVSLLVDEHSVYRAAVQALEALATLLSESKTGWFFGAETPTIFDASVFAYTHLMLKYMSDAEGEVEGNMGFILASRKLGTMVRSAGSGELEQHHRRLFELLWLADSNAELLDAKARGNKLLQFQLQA

[7] = target: T2, His9-Tob37 (Tob37 with a 9x His tag, N. crassa strain Tob37HT) (N. crassa, UniProt Q7SFC4 1-442); test: isotope dilution mass spectrometry
T2 sequence (looked up): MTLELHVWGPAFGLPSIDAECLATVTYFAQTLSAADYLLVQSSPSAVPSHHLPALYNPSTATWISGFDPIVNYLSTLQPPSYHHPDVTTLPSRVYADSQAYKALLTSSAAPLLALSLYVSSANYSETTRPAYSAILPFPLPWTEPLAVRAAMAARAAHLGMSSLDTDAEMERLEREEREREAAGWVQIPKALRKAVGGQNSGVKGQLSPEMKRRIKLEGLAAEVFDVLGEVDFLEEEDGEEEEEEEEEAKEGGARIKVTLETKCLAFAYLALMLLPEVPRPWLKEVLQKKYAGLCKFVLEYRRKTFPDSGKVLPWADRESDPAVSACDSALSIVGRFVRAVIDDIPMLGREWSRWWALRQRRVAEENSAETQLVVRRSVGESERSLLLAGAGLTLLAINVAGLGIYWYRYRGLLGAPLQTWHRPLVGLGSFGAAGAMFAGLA

[8] = target: T2, His9-Tob37 (Tob37 with a 9x His tag, N. …); test: native gel or EMSA
[9] = target: T1, His9-Tob38 (Tob38 with a 9x His tag, N. …); test: native gel or EMSA

Molecule: His9-Tob55, short isoform (N. crassa strain Tob55 short HT) (natural protein)
stoichiometry N [1]: 2

B2: Tob38 (endogenous) (natural protein, N. crassa, UniProt V5IPB4 1-340, looked up)
chain: MATTSAAAPPRKWWQVPRPLQKVFDTFPLLAYDVNALPARAQSATSGDLPTLYVFSTEEEALLGAPSFNPNCLKWQAFLKLAGVKFQILPSTNHASPTGALPFILPTRSSPTDAPSPIPSSKLHDYALKYGTSNPPEVSALRLDAYQALLDVPIRNAWLQALYRDPEYTDLLDRFYITPASSSYWVRGALRHQLRRAAETEILKTGPGGAASTAVSLLVDEHSVYRAAVQALEALATLLSESKTGWFFGAETPTIFDASVFAYTHLMLKYMSDAEGEVEGNMGFILASRKLGTMVRSAGSGELEQHHRRLFELLWLADSNAELLDAKARGNKLLQFQLQA
stoichiometry N [5]: 1
stoichiometry N [7]: 1

B3: Mdm10 (endogenous) (natural protein, N. crassa, UniProt Q7SBE0 1-480, looked up)
chain: MREFMNYITNAFYGATGWNEDNKYNELNATSRELIDFPLPRGLRLTLSSLATPHFATSYQLGSVGVVDGSISYLHSSIPLTHIAAQSDKIPLPALLRCYRRLHDLRSPGQQHYILDADPLSGLPPPPQSARALLGAASDAAVAGGALDGGNTDQDLGIYTHSLLYGRLYLPKSLLEGMIIKRFTQALQVQVRAVSEQSLRNGGTILGLVQYDKGKYGLEGLYSTDGGLLGFRGLYNFGGDASSSTCDPWTPTPGENNNNNNNNNNNNNGNAQAGEKERIYGRFSVGGELYYGTLNKSGGMSLGARFATLPAHRGTPLTATLTINPLMGNINATYALLAREYCSLATRVDFNVYSYESEWAVGMELWSNRRPAGFLLGASPSNDFEPEPHPPRKKERSFQAKMEWRLDDPEPEPEPQPTPKTRKNDEYKGVLKARLDNNLRMGLLWEGRAKSLIFSIGTGIDLHKLGEPFRSLGLEVQYSS
stoichiometry N [8]: 1
stoichiometry N [9]: 1

Next, values leading:

stoichiometry N [2]: 1
stoichiometry N [3]: 1
stoichiometry N [4]: 2
Molecule: Tob55 (endogenous; long, intermediate and short isoforms) (natural protein)

stoichiometry N [5]: 1
stoichiometry N [6]: 1
B1: Tob37 (endogenous) (natural protein, N. crassa, UniProt Q7SFC4 1-442, looked up)
chain: MTLELHVWGPAFGLPSIDAECLATVTYFAQTLSAADYLLVQSSPSAVPSHHLPALYNPSTATWISGFDPIVNYLSTLQPPSYHHPDVTTLPSRVYADSQAYKALLTSSAAPLLALSLYVSSANYSETTRPAYSAILPFPLPWTEPLAVRAAMAARAAHLGMSSLDTDAEMERLEREEREREAAGWVQIPKALRKAVGGQNSGVKGQLSPEMKRRIKLEGLAAEVFDVLGEVDFLEEEDGEEEEEEEEEAKEGGARIKVTLETKCLAFAYLALMLLPEVPRPWLKEVLQKKYAGLCKFVLEYRRKTFPDSGKVLPWADRESDPAVSACDSALSIVGRFVRAVIDDIPMLGREWSRWWALRQRRVAEENSAETQLVVRRSVGESERSLLLAGAGLTLLAINVAGLGIYWYRYRGLLGAPLQTWHRPLVGLGSFGAAGAMFAGLA
